± gives the uncertainty stated by the source.
B1: Serine/threonine-protein kinase A-Raf, residues 21 to 89; numbered along this chain, P10398 (parent)
chain: VKVYLPNKQRTVVTVRDGMSVYDSLDKALKVRGLNQDCCVVYRLIKGRKTVTAWDTAIAPLDGEELIVE

Variants of: B1
Assay: abundance fitness (aPCA) (normalised: wild type 0, dead -1); higher = more abundant; growth selection in yeast, the domain comes from the species named
Conditions: Homo sapiens

Variant	abundance fitness
VKVYLPNKQRTVVTVRDGMSVYDSLDKALKVRGLNQDCCVVTRLIKGRKTVTAWDTAIAPLDGEELIVE	-0.561 ± 0.09
VKVYLPNKQRTVVTVRDGMSVYDSLDKALKVRGLNQDCCVVQRLIKGRKTVTAWDTAIAPLDGEELIVE	-0.945 ± 0.38
VKVYLPNKQRTVVTVRDGMSVYDSLDKALKVRGLNQDCCVVVRLIKGRKTVTAWDTAIAPLDGEELIVE	-0.864 ± 0.1
VKVYLPNKQRTVVTVRDGMSVYDSLDKALKVRGLNQDCCVVSRLIKGRKTVTAWDTAIAPLDGEELIVE	-0.525 ± 0.093
VKVYLPNKQRTVVTVRDGMSVYDSLDKALKVRGLNQDCCVVWRLIKGRKTVTAWDTAIAPLDGEELIVE	-0.366 ± 0.064
VKVYLPNKQRTVVTVRDGMSVYDSLDKALKVRGLNQDCCVVRRLIKGRKTVTAWDTAIAPLDGEELIVE	-1.15 ± 0.23
VKVYLPNKQRTVVTVRDGMSVYDSLDKALKVRGLNQDCCVVYRLIKCRKTVTAWDTAIAPLDGEELIVE	-0.826 ± 0.17
VKVYLPNKQRTVVTVRDGMSVYDSLDKALKVRGLNQDCCVVYRLIKDRKTVTAWDTAIAPLDGEELIVE	-0.71 ± 0.21
VKVYLPNKQRTVVTVRDGMSVYDSLDKALKVRGLNQDCCVVYRLIGGRKTVTAWDTAIAPLDGEELIVE	0.014 ± 0.039
VKVYLPNKQRTVVTVRDGMSVYDSLDKALKVRGLNQDCCVVYRLIVGRKTVTAWDTAIAPLDGEELIVE	-0.792 ± 0.089
VKVYLPNKQRTVVTVRDGMSVYDSLDKALKVRGLNQDCCVVYRLIQGRKTVTAWDTAIAPLDGEELIVE	-0.009 ± 0.067
VKVYLPNKQRTVVTVRDGMSVYDSLDKALKVRGLNQDCCVVYRLIWGRKTVTAWDTAIAPLDGEELIVE	-0.667 ± 0.093
VKVYLPNKQRTVVTVRDGMSVYDSLDKALKVRGLNQDCCVVYRLIDGRKTVTAWDTAIAPLDGEELIVE	0.199 ± 0.2
VKVYLPNKQRTVVTVRDGMSVYDSLDKALKVRGLNQDCCVVYRLICGRKTVTAWDTAIAPLDGEELIVE	-0.133 ± 0.11
VKVYLPNKQRTVVTVRDGMSVYDSLDKALKVRGLNQDCCVVYRLINGRKTVTAWDTAIAPLDGEELIVE	0.228 ± 0.17
VKVYLPNKQRTVVTVRDGMSVYDSLDKALKVRGLNQDCCVVYRLIYGRKTVTAWDTAIAPLDGEELIVE	-0.41 ± 0.31
VKVYLPNKQRTVVTVRDGMSVYDSLDKALKVRGLNQDCCVVYRLIRGRKTVTAWDTAIAPLDGEELIVE	-0.024 ± 0.034
VKVYLPNKQRTVVTVRDGMSVYDSLDKALKVRGLNQDCCVVYRLILGRKTVTAWDTAIAPLDGEELIVE	-0.437 ± 0.063
VKVYLPNKQRTVVTVRDGMSVYDSLDKALKVRGLNQDCCVVYRLIPGRKTVTAWDTAIAPLDGEELIVE	-0.941 ± 0.14
VKVYLPNKQRTVVTVRDGMSVYDSLDKALKVRGLNQDCCVVYRLITGRKTVTAWDTAIAPLDGEELIVE	-0.383 ± 0.069
VKVYLPNKQRTVVTVRDGMSVYDSLDKALKVRGLNQDCCVVYRLIHGRKTVTAWDTAIAPLDGEELIVE	-0.259 ± 0.11
VKVYLPNKQRTVVTVRDGMSVYDSLDKALKVRGLNQDCCVVYRLISGRKTVTAWDTAIAPLDGEELIVE	-0.08 ± 0.058
VKVYLPNKQRTVVTVRDGMSVYDSLDKALKVRGLNQDCCVVYRLIEGRKTVTAWDTAIAPLDGEELIVE	0.102 ± 0.08
VKVYLPNKQRTVVTVRDGMSVYDSLDKALKVRGLNQDCCVVYRLIAGRKTVTAWDTAIAPLDGEELIVE	0.001 ± 0.037
VKVYLPNKQRTVVTVRDGMSVYDSLDKALKVRGLNQDCCVVYRWIKGRKTVTAWDTAIAPLDGEELIVE	-0.059 ± 0.067
VKVYLPNKQRTVVTVRDGMSVYDSLDKALKVRGLNQDCCVVYRIIKGRKTVTAWDTAIAPLDGEELIVE	0.073 ± 0.082

Variant	abundance fitness
VKVYLPNKQRTVVTVRDGMSVYDSLDKALKVRGLNQDCCVVYRPIKGRKTVTAWDTAIAPLDGEELIVE	-0.853 ± 0.17
VKVYLPNKQRTVVTVRDGMSVYDSLDKALKVRGLNQDCCVVYREIKGRKTVTAWDTAIAPLDGEELIVE	-0.279 ± 0.08
VKVYLPNKQRTVVTVRDGMSVYDSLDKALKVRGLNQDCCVVYRCIKGRKTVTAWDTAIAPLDGEELIVE	-0.684 ± 0.38
VKVYLPNKQRTVVTVRDGMSVYDSLDKALKVRGLNQDCCVVYRTIKGRKTVTAWDTAIAPLDGEELIVE	-0.169 ± 0.082
VKVYLPNKQRTVVTVRDGMSVYDSLDKALKVRGLNQDCCVVYRAIKGRKTVTAWDTAIAPLDGEELIVE	-0.475 ± 0.07
VKVYLPNKQRTVVTVRDGMSVYDSLDKALKVRGLNQDCCVVYRFIKGRKTVTAWDTAIAPLDGEELIVE	-0.197 ± 0.13
VKVYLPNKQRTVVTVRDGMSVYDSLDKALKVRGLNQDCCVVYRGIKGRKTVTAWDTAIAPLDGEELIVE	-0.767 ± 0.09
VKVYLPNKQRTVVTVRDGMSVYDSLDKALKVRGLNQDCCVVYRNIKGRKTVTAWDTAIAPLDGEELIVE	-0.082 ± 0.17
VKVYLPNKQRTVVTVRDGMSVYDSLDKALKVRGLNQDCCVVYRKIKGRKTVTAWDTAIAPLDGEELIVE	-0.031 ± 0.076
VKVYLPNKQRTVVTVRDGMSVYDSLDKALKVRGLNQDCCVVYRDIKGRKTVTAWDTAIAPLDGEELIVE	-0.65 ± 0.45
VKVYLPNKQRTVVTVRDGMSVYDSLDKALKVRGLNQDCCVVYRRIKGRKTVTAWDTAIAPLDGEELIVE	-0.108 ± 0.044
VKVYLPNKQRTVVTVRDGMSVYDSLDKALKVRGLNQDCCVVYRYIKGRKTVTAWDTAIAPLDGEELIVE	-0.037 ± 0.2
VKVYLPNKQRTVVTVRDGMSVYDSLDKALKVRGLNQDCCVVYRMIKGRKTVTAWDTAIAPLDGEELIVE	0.069 ± 0.072
VKVYLPNKQRTVVTVRDGMSVYDSLDKALKVRGLNQDCCVVYRSIKGRKTVTAWDTAIAPLDGEELIVE	-0.15 ± 0.06
VKVYLPNKQRTVVTVRDGMSVYDSLDKALKVRGLNQDCCVVYRVIKGRKTVTAWDTAIAPLDGEELIVE	-0.112 ± 0.052
VKVYLPNKQRTVVTVRDGMSVYDSLDKALKVRGLNQDCCVVYRQIKGRKTVTAWDTAIAPLDGEELIVE	-0.307 ± 0.1
VKVYLPNKQRTVVTVRDGMSVYDSLDKALKVRGLNQDCCVVYRLAKGRKTVTAWDTAIAPLDGEELIVE	-0.318 ± 0.079
VKVYLPNKQRTVVTVRDGMSVYDSLDKALKVRGLNQDCCVVYRLLKGRKTVTAWDTAIAPLDGEELIVE	-0.11 ± 0.051
VKVYLPNKQRTVVTVRDGMSVYDSLDKALKVRGLNQDCCVVYRLNKGRKTVTAWDTAIAPLDGEELIVE	-0.435 ± 0.27
VKVYLPNKQRTVVTVRDGMSVYDSLDKALKVRGLNQDCCVVYRLMKGRKTVTAWDTAIAPLDGEELIVE	-0.508 ± 0.12
VKVYLPNKQRTVVTVRDGMSVYDSLDKALKVRGLNQDCCVVYRLQKGRKTVTAWDTAIAPLDGEELIVE	-0.078 ± 0.087
VKVYLPNKQRTVVTVRDGMSVYDSLDKALKVRGLNQDCCVVYRLYKGRKTVTAWDTAIAPLDGEELIVE	-0.077 ± 0.19
VKVYLPNKQRTVVTVRDGMSVYDSLDKALKVRGLNQDCCVVYRLCKGRKTVTAWDTAIAPLDGEELIVE	-0.458 ± 0.2
VKVYLPNKQRTVVTVRDGMSVYDSLDKALKVRGLNQDCCVVYRLDKGRKTVTAWDTAIAPLDGEELIVE	-0.1 ± 0.13
VKVYLPNKQRTVVTVRDGMSVYDSLDKALKVRGLNQDCCVVYRLTKGRKTVTAWDTAIAPLDGEELIVE	-0.319 ± 0.12
VKVYLPNKQRTVVTVRDGMSVYDSLDKALKVRGLNQDCCVVYRLFKGRKTVTAWDTAIAPLDGEELIVE	-0.179 ± 0.074

Variant	abundance fitness
VKVYLPNKQRTVVTVRDGMSVYDSLDKALKVRGLNQDCCVVYRLKKGRKTVTAWDTAIAPLDGEELIVE	0.089 ± 0.18
VKVYLPNKQRTVVTVRDGMSVYDSLDKALKVRGLNQDCCVVYRLRKGRKTVTAWDTAIAPLDGEELIVE	-0.098 ± 0.053
VKVYLPNKQRTVVTVRDGMSVYDSLDKALKVRGLNQDCCVVYRLSKGRKTVTAWDTAIAPLDGEELIVE	-0.087 ± 0.071
VKVYLPNKQRTVVTVRDGMSVYDSLDKALKVRGLNQDCCVVYRLHKGRKTVTAWDTAIAPLDGEELIVE	-0.026 ± 0.14
VKVYLPNKQRTVVTVRDGMSVYDSLDKALKVRGLNQDCCVVYRLVKGRKTVTAWDTAIAPLDGEELIVE	-0.067 ± 0.12
VKVYLPNKQRTVVTVRDGMSVYDSLDKALKVRGLNQDCCVVYRLWKGRKTVTAWDTAIAPLDGEELIVE	-0.1 ± 0.073
VKVYLPNKQRTVVTVRDGMSVYDSLDKALKVRGLNQDCCVVYRLEKGRKTVTAWDTAIAPLDGEELIVE	-0.224 ± 0.079
VKVYLPNKQRTVVTVRDGMSVYDSLDKALKVRGLNQDCCVVYRLPKGRKTVTAWDTAIAPLDGEELIVE	-1.1 ± 0.32
VKVYLPNKQRTVVTVRDGMSVYDSLDKALKVRGLNQDCCVVYRLGKGRKTVTAWDTAIAPLDGEELIVE	-0.198 ± 0.12
VKVYLPNKQRTVVTVRDGMSVYDSLDKALKVRGLNQDCCVVYHLIKGRKTVTAWDTAIAPLDGEELIVE	-0.072 ± 0.42
VKVYLPNKQRTVVTVRDGMSVYDSLDKALKVRGLNQDCCVVYALIKGRKTVTAWDTAIAPLDGEELIVE	-0.721 ± 0.14
VKVYLPNKQRTVVTVRDGMSVYDSLDKALKVRGLNQDCCVVYNLIKGRKTVTAWDTAIAPLDGEELIVE	-0.602 ± 0.43
VKVYLPNKQRTVVTVRDGMSVYDSLDKALKVRGLNQDCCVVYELIKGRKTVTAWDTAIAPLDGEELIVE	-0.824 ± 0.3
VKVYLPNKQRTVVTVRDGMSVYDSLDKALKVRGLNQDCCVVYQLIKGRKTVTAWDTAIAPLDGEELIVE	-0.102 ± 0.076
VKVYLPNKQRTVVTVRDGMSVYDSLDKALKVRGLNQDCCVVYGLIKGRKTVTAWDTAIAPLDGEELIVE	-0.907 ± 0.13
VKVYLPNKQRTVVTVRDGMSVYDSLDKALKVRGLNQDCCVVYMLIKGRKTVTAWDTAIAPLDGEELIVE	-1 ± 0.23
VKVYLPNKQRTVVTVRDGMSVYDSLDKALKVRGLNQDCCVVYKLIKGRKTVTAWDTAIAPLDGEELIVE	-0.205 ± 0.083
VKVYLPNKQRTVVTVRDGMSVYDSLDKALKVRGLNQDCCVVYILIKGRKTVTAWDTAIAPLDGEELIVE	-1 ± 0.37
VKVYLPNKQRTVVTVRDGMSVYDSLDKALKVRGLNQDCCVVYPLIKGRKTVTAWDTAIAPLDGEELIVE	-0.822 ± 0.33
VKVYLPNKQRTVVTVRDGMSVYDSLDKALKVRGLNQDCCVVYVLIKGRKTVTAWDTAIAPLDGEELIVE	-0.703 ± 0.096
VKVYLPNKQRTVVTVRDGMSVYDSLDKALKVRGLNQDCCVVYWLIKGRKTVTAWDTAIAPLDGEELIVE	-0.911 ± 0.38
VKVYLPNKQRTVVTVRDGMSVYDSLDKALKVRGLNQDCCVVYSLIKGRKTVTAWDTAIAPLDGEELIVE	-0.305 ± 0.061
VKVYLPNKQRTVVTVRDGMSVYDSLDKALKVRGLNQDCCVVYTLIKGRKTVTAWDTAIAPLDGEELIVE	-0.225 ± 0.067
VKVYLPNKQRTVVTVRDGMSVYDSLDKALKVRGLNQDCCVVYCLIKGRKTVTAWDTAIAPLDGEELIVE	-0.742 ± 0.15
VKVYLPNKQRTVVTVRDGMSVYDSLDKALKVRGLNQDCCVVYDLIKGRKTVTAWDTAIAPLDGEELIVE	-0.939 ± 0.43
VKVYLPNKQRTVVTVRDGMSVYDSLDKALKVRGLNQDCCVVYLLIKGRKTVTAWDTAIAPLDGEELIVE	-0.963 ± 0.12

Reference: the Human Domainome abundance scans (Beltran et al. 2025)
